T1: hNup153 (aa875-1475) (human, UniProt P49790 875-1475, fluorescein-5-maleimide label (labelled protein mixed with unlabelled protein))
T1 sequence: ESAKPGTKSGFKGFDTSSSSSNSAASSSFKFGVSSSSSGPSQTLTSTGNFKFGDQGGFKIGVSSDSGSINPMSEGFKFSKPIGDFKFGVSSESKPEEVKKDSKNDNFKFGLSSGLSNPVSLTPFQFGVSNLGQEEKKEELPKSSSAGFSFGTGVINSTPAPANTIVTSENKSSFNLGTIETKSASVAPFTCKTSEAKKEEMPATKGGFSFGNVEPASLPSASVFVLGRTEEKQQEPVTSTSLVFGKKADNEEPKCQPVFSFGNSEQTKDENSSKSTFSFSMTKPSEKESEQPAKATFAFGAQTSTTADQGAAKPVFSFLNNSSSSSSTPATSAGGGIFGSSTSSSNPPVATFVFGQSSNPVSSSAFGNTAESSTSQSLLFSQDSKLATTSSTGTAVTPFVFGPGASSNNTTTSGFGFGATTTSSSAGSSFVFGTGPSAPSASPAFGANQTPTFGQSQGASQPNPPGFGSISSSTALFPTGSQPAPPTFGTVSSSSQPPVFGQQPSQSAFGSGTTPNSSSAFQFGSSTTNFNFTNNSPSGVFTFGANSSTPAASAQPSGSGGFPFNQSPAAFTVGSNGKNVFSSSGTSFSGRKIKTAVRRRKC


Columns and labels:
[1] = biological target: yNup100FG (aa1-580) (yeast, UniProt Q02629 1-580, fluorescein-5-maleimide label (labelled protein mixed with unlabelled protein)); assay: fluorescence microscopy of particles formed by mixed purified labelled proteins
[2] = biological target: T1, hNup153 (aa875-1475); assay: as above
[3] = biological target: the molecule itself; assay: as above
[4] = biological target: yNup116FG (aa1-725) (yeast, UniProt Q02630 1-725, fluorescein-5-maleimide label (labelled protein mixed with unlabelled protein)); assay: as above
[5] = biological target: the molecule itself; assay: fluorescence microscopy of particles formed by one purified labelled protein

| binding result [1] | binding result [2] | binding result [4] | Binder | binding result [3] | binding result [5] |
| --- | --- | --- | --- | --- | --- |
| binds | binds | binds | DNAJB2 isoform a (natural protein, human, Alexa Fluor 594 C5-maleimide label (labelled protein mixed with unlabelled protein)) MASYYEILDVPRSASADDIKKAYRRKALQWHPDKNPDNKEFAEKKFKEVAEAYEVLSDKHKREIYDRYGREGLTGTGTGPSRAEAGSGGPGFTFTFRSPEEVFREFFGSGDPFAELFDDLGPFSELQNRGSRHSGPFFTFSSSFPGHSDFSSSSFSFSPGAGAFRSVSTSTTFVQGRRITTRRIMENGQERVEVEEDGQLKSVTINGVPDDLALGLELSRREQQPSVTSRSGGTQVQQTPASCPLDSDLSEDEDLQLAMAYSLSEMEAAGKKPADVFC | binds | – |
| binds | binds | binds | DNAJB8 (natural protein, human, Alexa Fluor 594 C5-maleimide label (labelled protein mixed with unlabelled protein)) MANYYEVLGVQASASPEDIKKAYRKLALRWHPDKNPDNKEEAEKKFKLVSEAYEVLSDSKKRSLYDRAGCDSWRAGGGASTPYHSPFDTGYTFRNPEDIFREFFGGLDPFSFEFWDSPFNSDRGGRGHGLRGAFSAGFGEFPAFMEAFSSFNMLGCSGGSHTTFSSTSFGGSSSGSSGFKSVMSSTEMINGHKVTTKRIVENGQERVEVEEDGQLKSVTVNGKEQLKWMDSKC | binds | – |
| binds | binds | binds | DNAJB6 isoform b, wildtype (natural protein, Alexa Fluor 594 C5-maleimide label (labelled protein mixed with unlabelled protein)) not shown | – | binds |

Source: doi:10.1101/2025.10.20.683411 (bioRxiv, 2025)
